Assay results taken from patent US20240279357A1 (THERINI BIO, published 2024).

T1: human Fibrin (human fibrinogen clotted on the plate with thrombin and CaCl2) (human, UniProt P02671 36-629; P02675 45-491; P02679 27-437)
T1 construct: Made in the ELISA wells from the human fibrinogen by thrombin and CaCl2, 1 hour at 37 C, then dried
T1 sequence (looked up) 1: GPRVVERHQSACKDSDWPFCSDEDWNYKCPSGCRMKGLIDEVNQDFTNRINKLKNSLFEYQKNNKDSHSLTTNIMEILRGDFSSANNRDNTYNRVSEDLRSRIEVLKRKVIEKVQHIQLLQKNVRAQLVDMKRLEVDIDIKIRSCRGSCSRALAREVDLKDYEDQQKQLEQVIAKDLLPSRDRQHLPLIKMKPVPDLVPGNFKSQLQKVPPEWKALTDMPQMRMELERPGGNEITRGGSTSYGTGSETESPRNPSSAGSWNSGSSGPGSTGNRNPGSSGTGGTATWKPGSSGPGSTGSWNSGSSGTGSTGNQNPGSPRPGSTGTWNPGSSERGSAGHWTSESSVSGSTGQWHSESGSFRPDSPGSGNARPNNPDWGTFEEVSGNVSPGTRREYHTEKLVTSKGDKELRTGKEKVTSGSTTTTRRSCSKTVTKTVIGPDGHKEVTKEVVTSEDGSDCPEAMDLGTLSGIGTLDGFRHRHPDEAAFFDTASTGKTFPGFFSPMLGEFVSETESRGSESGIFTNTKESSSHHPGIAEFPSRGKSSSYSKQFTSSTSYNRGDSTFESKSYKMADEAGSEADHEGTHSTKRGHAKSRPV
T1 sequence (looked up) 2: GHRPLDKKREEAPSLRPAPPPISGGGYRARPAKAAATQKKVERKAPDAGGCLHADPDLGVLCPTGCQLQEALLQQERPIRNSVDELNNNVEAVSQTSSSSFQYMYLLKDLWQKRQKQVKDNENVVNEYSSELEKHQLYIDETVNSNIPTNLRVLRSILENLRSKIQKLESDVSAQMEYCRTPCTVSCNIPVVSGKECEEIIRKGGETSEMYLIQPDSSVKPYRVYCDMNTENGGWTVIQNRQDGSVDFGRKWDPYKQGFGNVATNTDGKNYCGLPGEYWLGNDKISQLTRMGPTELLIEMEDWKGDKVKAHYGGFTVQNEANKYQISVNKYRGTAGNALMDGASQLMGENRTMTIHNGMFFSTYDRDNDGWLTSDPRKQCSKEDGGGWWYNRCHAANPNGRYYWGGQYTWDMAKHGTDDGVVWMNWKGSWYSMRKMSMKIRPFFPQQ
T1 sequence (looked up) 3: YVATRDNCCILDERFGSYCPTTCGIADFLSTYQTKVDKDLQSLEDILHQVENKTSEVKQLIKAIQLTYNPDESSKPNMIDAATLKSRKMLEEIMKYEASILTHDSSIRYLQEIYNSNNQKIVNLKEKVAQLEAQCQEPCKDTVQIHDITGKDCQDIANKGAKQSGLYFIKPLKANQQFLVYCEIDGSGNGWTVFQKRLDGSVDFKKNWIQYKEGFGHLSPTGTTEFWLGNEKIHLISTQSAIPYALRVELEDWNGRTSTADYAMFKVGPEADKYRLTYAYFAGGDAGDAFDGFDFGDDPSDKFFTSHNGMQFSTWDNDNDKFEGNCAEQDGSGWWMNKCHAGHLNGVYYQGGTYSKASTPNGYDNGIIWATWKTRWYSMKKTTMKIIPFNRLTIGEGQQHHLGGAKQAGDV


Target: T1, human Fibrin (human fibrinogen clotted …)
Assay: ELISA on human fibrin formed on the plate
Procedure: The humanized antibodies affinity for fibrinogen, fibrin and P2 peptide were assessed by Enzyme-linked immunosorbent assays (ELISA)s (FIGS. 7-16). ELISAs for fibrinogen binding were performed using plasminogen-depleted human Fibrinogen (EMD/Calbiochem). […] IgG1-depleted Fibrinogen (FGN) in 20 mM HEPES/Saline buffer was added to each well of half of a 96-well Nunc Maxisorp™ ELISA plate. The ELISAs for fibrin binding were prepared by adding 50 mL of 20 mM HEPES/Saline buffer containing 14 mM CaCl₂, and 2 units thrombin to each well of the second half of the Nunc Maxisorp™ ELISA plate. 50 mL of 20 mg fibrinogen in 20 mM HEPES/Saline buffer were then added to a total volume of 100 mL. Plates were placed in a 37° C. incubator for 1 hour to allow fibrinogen to clot into fibrin and subsequently placed overnight into a plate dryer at 37° C. overnight. The ELISAs for P2 peptide were prepared by addition of […] of 30 mM P2 peptide in 20 mM HEPES/Saline buffer to each well of a 96-well Nunc Maxisorp™ ELISA plate. Plates were transferred to the plate dryer and dried overnight at 37° C. All ELISAs were preformed using Nunc MaxiSorp 96-well ELISA plates. Blocking was performed using 100 mL 5% BSA in DPBS are incubated at RT for 1 hour. Plates were washed 5× in DPBS containing 0.05% Tween-20 (EL406 was used for the addition of wash buffer only). 50 mL of primary antibodies was diluted in 0.5% BSA in DPBS, and the primary antibodies were added to the plates and incubated for 2 hours at 37° C. Plates were washed 5× in DPBS/Tween. 100 mL secondary antibodies were diluted in 0.5% BSA in DPBS. The secondary antibodies were then added to the plates and incubated for 1 hour at RT. Afterwards, plates were washed 5× in DPBS/Tween. 100 mL of TMB/E substrate solution was added, and the reaction was stopped after 5 minutes with 1N HCl.

EC50 [µM]	Binder
~0.525	humanized VH5/Vκ2 antibody (antibody, IgG1, V domains shown, IgG1; also called VH5/VK2; VH5Vk2) VH: QVQLVQSGAEVKKPGSSVKVSCKASGYTFTSYWIHWVRQAPGQGLEWIGLIDPSDSYTNYNQKFRGRVTITRDTSTSTAYMELSSLRSEDTAVYYCASSDPTGCWGQGTTVTVSS VL: DIVMTQAAFSNPVTPGTPASISCRSSKSLLHSSGITYLSWYLQKPGQSPQLLIYQMSNLASGVPDRFSSSGSGTDFTLKISRVEAEDVGVYYCAQNLELPLTFGQGTKLEIK
~0.762	humanized VH4/Vκ2 antibody (antibody, IgG1, V domains shown, IgG1; also called VH4/VK2; VH4Vk2) VH: QVQLVQSGAEVKKPGSSVKVSCKASGYTFTSYWIHWVRQAPGQGLEWIGLIDPSDSYTNYNQKFRGRVTITVDTSTSTAYMELSSLRSEDTAVYYCASSDPTGCWGQGTTVTVSS VL: DIVMTQAAFSNPVTPGTPASISCRSSKSLLHSSGITYLSWYLQKPGQSPQLLIYQMSNLASGVPDRFSSSGSGTDFTLKISRVEAEDVGVYYCAQNLELPLTFGQGTKLEIK
~0.488	humanized VH6/Vκ2 antibody (antibody, IgG1, V domains shown, Expressed as IgG1; also called VH6/VK2; VH6Vk2) VH: QVQLVQSGAEVKKPGSSVKVSCKASGYTFTSYWIHWVRQAPGQGLEWIGLIDPSDSYTNYNQKFQGRVTITRDTSTSTAYMELSSLRSEDTAVYYCASSDPTGCWGQGTTVTVSS VL: DIVMTQAAFSNPVTPGTPASISCRSSKSLLHSSGITYLSWYLQKPGQSPQLLIYQMSNLASGVPDRFSSSGSGTDFTLKISRVEAEDVGVYYCAQNLELPLTFGQGTKLEIK
~0.219	humanized VH4/Vκ1 antibody (antibody, IgG1, V domains shown, Expressed as IgG1; also called VH4/VK1; VH4Vk1) VH: QVQLVQSGAEVKKPGSSVKVSCKASGYTFTSYWIHWVRQAPGQGLEWIGLIDPSDSYTNYNQKFRGRVTITVDTSTSTAYMELSSLRSEDTAVYYCASSDPTGCWGQGTTVTVSS VL: DIVMTQAAFSNPITPGTPASISCRSSKSLLHSSGITYLSWYLQKPGQSPQLLIYQMSNLASGVPDRFSSSGSGTDFTLRISRVEAEDVGVYYCAQNLELPLTFGQGTKLEIK
